This note sets out measurements from paper PMC13534702, “Polo/PLK1 phosphorylation relieves Centrosomin/Cnn autoinhibition to promote centrosome scaffold assembly” (The EMBO Journal, 2026).

B2: MBP-Cnn_(490-608) WT (domain or fragment, Drosophila melanogaster, UniProt P54623-2 490-608, looked up)
chain: DQQNSAVIGQLRLELQQARTEVETADKWRLECVDVCSVLTNRLEELAGFLNSLLKHKDVLGVLAADRRNAMRKAVDRSLDLSKSLNMTLNITATSLADQSLAQLCNLSEILYTEGDASH
notes: I take the same protein to have been used there; source: E. coli BL21 (DE3), purified; not shown: MBP, N-terminal, kept

The target of data set [1] is T1, Cnn_(490-608), tag cleaved (SEC-MALS) (Drosophila melanogaster, UniProt P54623-2 490-608).
T1 construct: also called PReMΔH1ΔNTH2; source: E. coli BL21 (DE3), purified, tag cleaved for SEC-MALS; not shown: His6, N-terminal, cleaved; MBP, N-terminal, cleaved
T1 sequence (looked up): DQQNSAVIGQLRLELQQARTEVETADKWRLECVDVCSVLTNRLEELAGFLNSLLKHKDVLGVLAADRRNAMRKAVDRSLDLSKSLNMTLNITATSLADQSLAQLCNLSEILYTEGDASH
The experiment in a line: SEC-MALS; Cnn 490-608 mixed with CM2; Superdex 75 or Superdex 200 10/300 Increase; 20 mM Tris pH 7.5, 150 mM NaCl, 0.5 mM TCEP; 0.5 mL/min; fraction checked on an SDS gel. The settings on record: both partners purified. For orientation: Size exclusion chromatography separates by hydrodynamic size, large species first.

Data set [2] concerns the target T2, MBP-Cnn_(490-608) 2E (S567E/S571E) (Drosophila melanogaster, UniProt P54623-2 490-608, S567E | S571E).
T2 construct: also called 2E mutant; source: E. coli BL21 (DE3), purified; not shown: MBP, N-terminal, kept
T2 sequence (looked up): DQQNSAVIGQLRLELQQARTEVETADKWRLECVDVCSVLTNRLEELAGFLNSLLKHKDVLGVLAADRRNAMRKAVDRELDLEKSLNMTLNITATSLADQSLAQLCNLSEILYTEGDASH
As to the kind of experiment: SEC; PReM domain (Cnn 490-608) variants mixed with CM2; fractions checked on SDS gels. The conditions noted are these: both partners purified.

In the data set “MBP-Cnn_(490-608) WT” the target is B2. The description is as above. The conditions noted are these: both partners purified.
Data set [3] deals with the molecule itself. As to the kind of experiment: SEC; MBP-Cnn 490-608 variants run alone; absorbance at 280 nm; size judged from the elution volume.
The target in data set [4] is T3, Full-length SPD-5-GFP (C. elegans), P91349.
T3 chain: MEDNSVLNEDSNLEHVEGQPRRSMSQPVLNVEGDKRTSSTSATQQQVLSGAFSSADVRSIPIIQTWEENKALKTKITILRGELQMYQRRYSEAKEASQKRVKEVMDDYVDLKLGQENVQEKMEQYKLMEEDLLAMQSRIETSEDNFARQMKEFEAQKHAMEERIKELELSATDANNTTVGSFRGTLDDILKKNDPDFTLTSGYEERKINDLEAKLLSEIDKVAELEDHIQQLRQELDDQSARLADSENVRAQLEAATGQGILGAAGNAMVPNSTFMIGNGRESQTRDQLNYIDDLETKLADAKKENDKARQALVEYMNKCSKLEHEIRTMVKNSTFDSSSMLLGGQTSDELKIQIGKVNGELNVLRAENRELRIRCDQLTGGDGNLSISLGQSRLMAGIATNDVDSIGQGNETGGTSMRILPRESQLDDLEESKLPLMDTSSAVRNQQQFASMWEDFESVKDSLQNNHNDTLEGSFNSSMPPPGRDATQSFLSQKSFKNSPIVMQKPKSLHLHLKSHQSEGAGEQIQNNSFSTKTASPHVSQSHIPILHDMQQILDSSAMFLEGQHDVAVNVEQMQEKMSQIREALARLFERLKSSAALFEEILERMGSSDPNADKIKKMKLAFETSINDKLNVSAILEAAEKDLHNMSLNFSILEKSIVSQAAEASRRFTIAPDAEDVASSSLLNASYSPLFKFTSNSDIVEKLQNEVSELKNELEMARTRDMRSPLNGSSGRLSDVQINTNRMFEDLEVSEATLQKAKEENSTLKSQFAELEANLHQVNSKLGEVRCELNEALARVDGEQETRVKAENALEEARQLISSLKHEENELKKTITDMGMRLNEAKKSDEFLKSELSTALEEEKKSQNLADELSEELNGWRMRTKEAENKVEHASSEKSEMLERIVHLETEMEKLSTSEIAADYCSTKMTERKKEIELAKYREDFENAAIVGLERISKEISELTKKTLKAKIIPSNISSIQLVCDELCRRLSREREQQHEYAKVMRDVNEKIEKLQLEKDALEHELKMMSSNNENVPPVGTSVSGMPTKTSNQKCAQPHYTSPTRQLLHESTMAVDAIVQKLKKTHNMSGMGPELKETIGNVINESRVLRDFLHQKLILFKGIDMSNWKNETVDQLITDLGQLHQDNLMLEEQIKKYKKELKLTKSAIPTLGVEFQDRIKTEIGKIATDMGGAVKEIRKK
As to the kind of experiment: mass photometry; full-length GFP fusions in solution; 20 mM HEPES, 150 mM KCl, pH 7.25; low nanomolar concentration (10 nM final by the procedure of the standards). The settings on record: remark: other sources report otherwise.

Data set [5] deals with the molecule itself. The description is as above.

B1: Drosophila Cnn CM2 domain (domain or fragment, Drosophila melanogaster, UniProt P54623-2 1082-1148, looked up)
chain: HDCAKVDLENAELRRKLIRTKRAFEDTYEKLRMANKAKAQVEKDIKNQILKTHNVLRNVRSNMENEL
notes: the EM methods print 1077-1148; The methods say that the N-terminal tag was cleaved for SEC-MALS, crystallisation or further use; also called DmCM2; fly CM2; source: E. coli BL21 (DE3), purified
Consider B1, for which the binding result (in data set [1]; in data set [2]; with MBP-Cnn_(490-608) WT) was “binds” in each case.

Take B2: the stoichiometry N (as a rule, the number of molecules, sites or subunits per partner or assembly) in data set [3] worked out at 2.

B3: MBP-Cnn_(490-608) 2A (S567A/S571A) (domain or fragment, Drosophila melanogaster, UniProt P54623-2 490-608, looked up)
chain: DQQNSAVIGQLRLELQQARTEVETADKWRLECVDVCSVLTNRLEELAGFLNSLLKHKDVLGVLAADRRNAMRKAVDRALDLAKSLNMTLNITATSLADQSLAQLCNLSEILYTEGDASH
notes: also called 2A-mutant PReM; source: E. coli BL21 (DE3), purified; not shown: MBP, N-terminal, kept
For the molecule B3, in data set [3], the “stoichiometry N” value stood at 2.

B4: Full-length SPD-5-GFP, P91349 1-1198 (natural protein)
chain: MEDNSVLNEDSNLEHVEGQPRRSMSQPVLNVEGDKRTSSTSATQQQVLSGAFSSADVRSIPIIQTWEENKALKTKITILRGELQMYQRRYSEAKEASQKRVKEVMDDYVDLKLGQENVQEKMEQYKLMEEDLLAMQSRIETSEDNFARQMKEFEAQKHAMEERIKELELSATDANNTTVGSFRGTLDDILKKNDPDFTLTSGYEERKINDLEAKLLSEIDKVAELEDHIQQLRQELDDQSARLADSENVRAQLEAATGQGILGAAGNAMVPNSTFMIGNGRESQTRDQLNYIDDLETKLADAKKENDKARQALVEYMNKCSKLEHEIRTMVKNSTFDSSSMLLGGQTSDELKIQIGKVNGELNVLRAENRELRIRCDQLTGGDGNLSISLGQSRLMAGIATNDVDSIGQGNETGGTSMRILPRESQLDDLEESKLPLMDTSSAVRNQQQFASMWEDFESVKDSLQNNHNDTLEGSFNSSMPPPGRDATQSFLSQKSFKNSPIVMQKPKSLHLHLKSHQSEGAGEQIQNNSFSTKTASPHVSQSHIPILHDMQQILDSSAMFLEGQHDVAVNVEQMQEKMSQIREALARLFERLKSSAALFEEILERMGSSDPNADKIKKMKLAFETSINDKLNVSAILEAAEKDLHNMSLNFSILEKSIVSQAAEASRRFTIAPDAEDVASSSLLNASYSPLFKFTSNSDIVEKLQNEVSELKNELEMARTRDMRSPLNGSSGRLSDVQINTNRMFEDLEVSEATLQKAKEENSTLKSQFAELEANLHQVNSKLGEVRCELNEALARVDGEQETRVKAENALEEARQLISSLKHEENELKKTITDMGMRLNEAKKSDEFLKSELSTALEEEKKSQNLADELSEELNGWRMRTKEAENKVEHASSEKSEMLERIVHLETEMEKLSTSEIAADYCSTKMTERKKEIELAKYREDFENAAIVGLERISKEISELTKKTLKAKIIPSNISSIQLVCDELCRRLSREREQQHEYAKVMRDVNEKIEKLQLEKDALEHELKMMSSNNENVPPVGTSVSGMPTKTSNQKCAQPHYTSPTRQLLHESTMAVDAIVQKLKKTHNMSGMGPELKETIGNVINESRVLRDFLHQKLILFKGIDMSNWKNETVDQLITDLGQLHQDNLMLEEQIKKYKKELKLTKSAIPTLGVEFQDRIKTEIGKIATDMGGAVKEIRKK
Molecule B4 displayed a stoichiometry N in data set [4] of 2.

B5: Full-length Cnn-GFP (natural protein, Drosophila melanogaster, UniProt P54623-2 1-1148, looked up)
chain: MDQSKQVLRDYCGDGNGTCASSLKEITLIETVTSFLEENGAAEIDRRVLRKLAEALSKSIDDTSPGALQDVTMENSYASFDVPRPPGGGNSPLPSQGRSVRELEEQMSALRKENFNLKLRIYFLEEGQPGARADSSTESLSKQLIDAKIEIATLRKTVDVKMELLKDAARAISHHEELQRKADIDSQAIIDELQEQIHAYQMAESGGQPVENIAKTRKMLRLESEVQRLEEELVNIEARNVAARNELEFMLAERLESLTACEGKIQELAIKNSELVERLEKETASAESSNANRDLGAQLADKICELQEAQEKLKERERIHEQACRTIQKLMQKLSSQEKEIKKLNQENEQSANKENDCAKTVISPSSSGRSMSDNEASSQEMSTNLRVRYELKINEQEEKIKQLQTEVKKKTANLQNLVNKELWEKNREVERLTKLLANQQKTLPQISEESAGEADLQQSFTEAEYMRALERNKLLQRKVDVLFQRLADDQQNSAVIGQLRLELQQARTEVETADKWRLECVDVCSVLTNRLEELAGFLNSLLKHKDVLGVLAADRRNAMRKAVDRSLDLSKSLNMTLNITATSLADQSLAQLCNLSEILYTEGDASHKTFNSHEELHAATSMAPTVENLKAENKALKKELEKRRSSEGQRKERRSLPLPSQQFDNQSESEAWSEPDRKVSLARIGLDETSNSLAAPEQAISESESEGRTCATRQDRNRNSERIAQLEEQIAQKDERMLNVQCQMVELDNRYKQEQLRCLDITQQLEQLRAINEALTADLHAIGSHEEERMVELQRQLELKNQQIDQLKLAHSTLTADSQITEMELQALQQQMQEIEQLHADSVETLQSQLQKLKLDAVQQLEEHERLHREALERDWVALTTYQEQAQQLLELQRSLDYHQENEKELKQTLVENELATRALKKQLDESTLQASKAVMERTKAYNDKLQLEKRSEELRLQLEALKEEHQKLLQKRSNSSDVSQSGYTSEEVAVPMGPPSGQATTCKQAAAAVLGQRVNTSSPDLGIESDAGRISSVEVSNAQRAMLKTVEMKTEGSASPKAKSEESTSPDSKSNVATGAATVHDCAKVDLENAELRRKLIRTKRAFEDTYEKLRMANKAKAQVEKDIKNQILKTHNVLRNVRSNMENEL
notes: Centrosomin (Cnn), Drosophila melanogaster, full length, synthesised gene; also called Cnn-WT; not shown: MBP, N-terminal, cleaved; mGFP, C-terminal, kept; His10, C-terminal, cleaved
As to B5, in data set [5], the “stoichiometry N” value was 2.
